# Experimental data: patent publication US12708677B2, “Contrast agents, methods for preparing contrast agents, and methods of imaging” (Georgia State University Research Foundation, Inc., priority 2008, dated 2026)
# B1: CA1.CD2: designed Gd^3+-binding protein, domain 1 of rat CD2 with ligand residues Glu15, Glu56, Asp58, Asp62, Asp64 (protein)
# chain: RDSGTVWGALGHGIELNIPNFQMTDDIDEVRWERGSTLVAEFKRKMKPFLKSGAFEIDANGDLDIKNLTRDDSGTYNVTVYSTNGTRILNKALDLRILE
# B2: Gd-CA1.CD2: CA1.CD2 in complex with Gd^3+ (protein)
# chain: B1 chain
# Experiments:
# [1] = Zn^2+ binding affinity, dye competition assay (FluoZin)
# From the text: FIG. 1.6: Measurement of metal binding constants. Gd^3+ binding affinity (FIG. 1.6a) and Zn^2+ binding affinity (FIG. 1.6b) of CA1.CD2 measured by dye competition assays. CA1.CD2 stock solution was gradually added into the 1:1 dye-metal complex to compete for the dye-bound metal ions. The insets show the titration curve for the dye indicators fluo 5N (FIG. 1.6a) and FluoZin (FIG. 1.6b), respectively. (FIG. 1.6c) La^3+ binding affinity obtained by Aromatic residue sensitized Tb^3+ luminescence energy transfer. The Tb^3+ fluorescence of a protein-Tb^3+ mixture decreases with the addition of La^3+. The La^3+ concentrations are 0, 0.30, 0.76, 5.95, 11.03, and 28.95 μM from top to bottom. The Tb^3+ fluorescence decrease competition was fitted (line) by a normal competition plus a nonspecific quenching effect (inset).
# (§1) Since metal selectivity for Gd^3+ over other physiological metal ions is for minimizing the toxicity of the agents,^39, 40 we measured metal binding constants using dye-competition assays with various chelate-metal buffer systems (Table 1). Low limit metal binding affinities of the proteins were also estimated based on Tb^3+-sensitized FRET and competition assays. […] This is considered for in vivo applications of the contrast agent as the phosphate concentration in serum is maintained at ~1.3 mM.^6, 9 The stability of a contrast agent in blood circulation is another factor for in vivo applications. We characterized the stability by incubating Gd-CA1.CD2 with 75% human serum at 37° C. for 3 and 6 hours.
# Metal binding affinity for Ca^2+ and Zn^2+ were determined using similar competition methods and specific dyes with proper Kd values.
# AU565 cells = assay: Cell binding by immuno-fluorescence staining; type: cell-based; details: 37 and 4° C.
# From the text: We first examined whether the designed CA1.HER2/Affi can target cancer cells by cell binding analyses. We used two cancer cell lines for the binding analyses. AU565 is derived from breast carcinoma. EMT6 is a mouse mammary tumor cell line. AU565 cells express very high levels of HER2. The EMT is regarded as a HER2 negative cell line. Binding of the Gd-CA1.HER2/Affi to the cancer cells was first analyzed by immuno-fluorescence staining using a polyclonal antibody against PEGylated parental protein CA1.CD2 (PAbPGCA1).
# [2] = In vitro r1 and r2 proton relaxivity; type: physicochemical; details: 3.0 T; 50 μM designed agents, 100 μM Gd-DTPA
# [3] = mouse, in vivo
# Method: Blood Circulation Time, Tissue Retention Time, and Bio-distribution. CD-1 mice (25-30 g, a group of four mice were tested) were anesthetized with isoflurane. Appropriate dosages of Gd-CA1.CD2 or Gd-DTPA were i.v. injected (via tail vein). Blood (~50 μl) samples were collected via orbital sinus of the mouse at different time points. The mouse was euthanized at the final time point. Tissue samples from kidney, liver, heart, and lung, were collected. Serum samples were prepared from the collected blood. For the bio-distribution analyses, the animals were euthanized at single time point (indicated) after i.v. administration of the contrast agent (indicated). The organ/tissue samples were collected. Tissue extracts were freshly made from collected samples using commercially available tissue extracting kits (Qiagen). CA1.CD2 was detected and quantified by immunoblotting and Sandwich-ELISA using a monoclonal antibody (OX45, detecting antibody) and a home made polyclonal antibody (PabCD2, capture antibody). A series of known amounts of CA1.CD2 samples mixed with blank mouse scrum or tissue extracts were used as standard in Sandwich-ELISA. ELISA signal from HRP was monitored using a Fluorstar fluorescence microplate reader. For quantification of Gd^3+ in the serum and tissue samples one hour (or indicated times) after the contrast agent administration, animals were sacrificed and critical organs were collected, and the tissues were then digested with concentrated nitric acid at 120-130° C. with proper amount of ^157Gd spike as an internal marker. The digested solution was analyzed by ICP-MS (Element 2) using an isotope dilution method.
# CD-1 mice (25-30 g) were anesthetized with isoflurane. Appropriate dosages of Gd-CA1.CD2 and its PEgylated variants (with Gd and ^153Gd) or Gd-DTPA were i.v. injected (via tail vein). Blood (~50 μl) samples were collected via orbital sinus of the mouse at different time points. The mouse was euthanized at the final time point. Tissue samples from kidney, liver, heart, and lung were collected. Serum samples were prepared from the collected blood. For the bio-distribution analyses, the animals were euthanized at single time point (indicated) after i.v. administration of the contrast agent (indicated). The organ/tissue samples were collected. Tissue extracts were freshly made from collected samples using commercially available tissue extracting kits (Qiagen). CA1.CD2 and its variants were detected and quantified by immunoblotting and Sandwich-ELISA using a monoclonal antibody (OX45, detecting antibody) and a home made polyclonal antibody (PabCD2, capture antibody). A series of known amounts of CA1.CD2 samples mixed with blank mouse serum or tissue extracts were used as standard in Sandwich-ELISA. ELISA signal from HRP was monitored using a Fluorstar fluorescence microplate reader. For quantification of Gd^3+ in the serum and tissue samples one hour (or indicated times) after the contrast agent administration, animals were sacrificed and critical organs were collected, and the tissues were then digested with concentrated nitric acid at 120-130° ° C. with proper amount of ^153Gd spike as an internal marker. The digested solution was analyzed.
# [4] = Mg^2+ binding constant, competition assays
# From the text: as §1
# SKOV3 = assay: MR imaging of cancer cell pellets; type: cell-based
# Method: (§2) To test whether our designed proteins are applicable for targeted imaging, we carried out MR imaging of cancer cells that were incubated with the designed protein contrast agents Gd-CA1-Affi using four different cancer cell lines with different expression levels of HER2. […] The MR image contrast enhancements from the contrast agent can be correlated to the HER2 levels.
# AU565 = assay: MR imaging of cancer cell pellets; type: cell-based
# Method: as §2
# [5] = Serum stability in human serum at 37° C., SDS-PAGE; type: in vitro ADME; details: 75% human serum, 37° C., 6 hours
# Method: Serum stability. […] The degradation of the protein (disappearance of 12 kDa protein band) was analyzed by SDS-PAGE and visualized by coomassie blue staining. In parallel, the degradation of the protein was also analyzed by immunoblot using antibodies OX54 or PabCD2. The identities of the 12 kDa bands as CA1.CD2 were always verified by immunobloting using antibody PabCD2.
# […] The degradation of the protein (disappearance of 12 kDa protein band) was analyzed by SDS-PAGE and visualized by coomassie blue staining for protein and idiol staining for PEG moiety. In parallel, the degradation of the protein was also analyzed by immunoblot using antibodies OX54 or PabCD2. The identities of CA1.CD2 and pegylated variants were verified by immunoblotting using antibody PabCD2.and idiol staining.
Molecule,Metal binding constant (Log Ka) Zn^2+ [1],disassociation constant (Kd) for Zn^2+ [1] [mM],Log (KGd/KZn) ([1]; metal selectivity),binding to AU565 cells (AU565 cells),contrast enhancement in T1 weighted imaging of samples [2],time first detectable in the kidney [3] [min],time of peak in the kidney [3] [h],injected dose remaining in the kidney ([3]; 15 h),time of sharp decrease in blood concentration of Gd^3+ and CA1.CD2 ([3]; iv),Metal binding constant (Log Ka) Mg^2+ [4],disassociation constant (Kd) for Mg^2+ [4] [mM],Log (KGd/KMg) ([4]; metal selectivity),MR image of SKOV3 cell pellets (SKOV3),MR image of AU565 cell pellets (AU565),stability of protein-Gd complex in serum [5],time remaining in blood circulation [3],time without significant decrease in CA1.CD2 levels in blood ([3]; iv) [min]
B1,6.72,0.00019,5.34,did not bind to either of the tested cultured cells,did not lead to significant enhancement,15,4 to 5,less than 10%,about 50 minutes,<2.0,> 10,>10.06,–,–,–,–,–
B2,–,–,–,–,able to introduce contrast enhancement,–,–,–,–,–,–,–,no significant changes in MR image,no significant changes in MR image,remained intact,more than 3 hours,45
